Where two headings read alike, the source gives them in different places. Positions of bridges follow the written chain, without caps; N, C: chain ends. Non-standard residues stand in square brackets, D forms with d. β3hI = CC[C@H](C)[C@H](N)CC(=O)O; Nle = CCCC[C@H](N)C(=O)O; Nva = CCC[C@H](N)C(=O)O; Sar = CNCC(=O)O
What was measured:
Human C3 [1] = molecular target: T1, Human C3 (human, UniProt P01024 23-1663); experiment: SPR, C3 immobilised
T1 construct: In SPR the bought human C3 was immobilised on CM5 chips by amine coupling; In the haemolysis assay the C3 is that of diluted human serum; also called complement C3
Description: Surface plasmon resonance (SPR) was used to characterize peptides with respect to their binding affinity (Kd) for C3. Human C3 (Complement tech cat #A1 13c) was immobilised on individual flow cells of CM5 sensor chips (GE Healthcare) using standard amine coupling to a density of approximately 3000 resonance units (RU) in a buffer consisting of 10 mM phosphate pH 7.4, 150 mM NaCl, 0.05% Tween20.
For interaction experiments a multi-cycle experiment approach was used and performed using either a Biacore™ T200 or Biacore™ X100 instrument (GE Healthcare) at 25° C. Peptides were injected in increasing concentration series (5-8 different concentrations) for 60-120 s at a flow rate of 30 μL/min in a buffer consisting of 10 mM Tris buffer at pH 7.4, with 150 mM NaCl and 0.05% Tween20. This was followed by a dissociation period for up to 10 min. The C3 surface was regenerated between runs by a 45 s injection of 3 M MgCl₂.
Sensorgrams were double-referenced (reference surface, blanks) prior to analysis of the kinetic profiles by globally fitting data to a 1:1 Langmuir binding model to obtain association and dissociation rates for calculation of the equilibrium dissociation constant Kd. Each peptide was tested at in at least 2 independent experiments.

Human C3 [2] = molecular target: T1, Human C3; experiment: cell-based or functional assay
Human C3 [3] = molecular target: T1, Human C3; experiment: cell-based or functional assay; remark: listed apart in the source
Human C3 [4] = molecular target: T1, Human C3; experiment: cell-based or functional assay; remark: listed apart in the source
Human C3 [5] = molecular target: T1, Human C3; experiment: SPR, C3 immobilised; remark: listed apart in the source
Method in brief: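 Human C3 amine-coupled to a CM5 chip at ~3000 RU; peptides injected multi-cycle at 5-8 concentrations for 60-120 s in Tris pH 7.4, 150 mM NaCl, 0.05% Tween20 at 25° C, dissociation up to 10 min.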

T1 sequence (P01024 23-1663 limits assumed): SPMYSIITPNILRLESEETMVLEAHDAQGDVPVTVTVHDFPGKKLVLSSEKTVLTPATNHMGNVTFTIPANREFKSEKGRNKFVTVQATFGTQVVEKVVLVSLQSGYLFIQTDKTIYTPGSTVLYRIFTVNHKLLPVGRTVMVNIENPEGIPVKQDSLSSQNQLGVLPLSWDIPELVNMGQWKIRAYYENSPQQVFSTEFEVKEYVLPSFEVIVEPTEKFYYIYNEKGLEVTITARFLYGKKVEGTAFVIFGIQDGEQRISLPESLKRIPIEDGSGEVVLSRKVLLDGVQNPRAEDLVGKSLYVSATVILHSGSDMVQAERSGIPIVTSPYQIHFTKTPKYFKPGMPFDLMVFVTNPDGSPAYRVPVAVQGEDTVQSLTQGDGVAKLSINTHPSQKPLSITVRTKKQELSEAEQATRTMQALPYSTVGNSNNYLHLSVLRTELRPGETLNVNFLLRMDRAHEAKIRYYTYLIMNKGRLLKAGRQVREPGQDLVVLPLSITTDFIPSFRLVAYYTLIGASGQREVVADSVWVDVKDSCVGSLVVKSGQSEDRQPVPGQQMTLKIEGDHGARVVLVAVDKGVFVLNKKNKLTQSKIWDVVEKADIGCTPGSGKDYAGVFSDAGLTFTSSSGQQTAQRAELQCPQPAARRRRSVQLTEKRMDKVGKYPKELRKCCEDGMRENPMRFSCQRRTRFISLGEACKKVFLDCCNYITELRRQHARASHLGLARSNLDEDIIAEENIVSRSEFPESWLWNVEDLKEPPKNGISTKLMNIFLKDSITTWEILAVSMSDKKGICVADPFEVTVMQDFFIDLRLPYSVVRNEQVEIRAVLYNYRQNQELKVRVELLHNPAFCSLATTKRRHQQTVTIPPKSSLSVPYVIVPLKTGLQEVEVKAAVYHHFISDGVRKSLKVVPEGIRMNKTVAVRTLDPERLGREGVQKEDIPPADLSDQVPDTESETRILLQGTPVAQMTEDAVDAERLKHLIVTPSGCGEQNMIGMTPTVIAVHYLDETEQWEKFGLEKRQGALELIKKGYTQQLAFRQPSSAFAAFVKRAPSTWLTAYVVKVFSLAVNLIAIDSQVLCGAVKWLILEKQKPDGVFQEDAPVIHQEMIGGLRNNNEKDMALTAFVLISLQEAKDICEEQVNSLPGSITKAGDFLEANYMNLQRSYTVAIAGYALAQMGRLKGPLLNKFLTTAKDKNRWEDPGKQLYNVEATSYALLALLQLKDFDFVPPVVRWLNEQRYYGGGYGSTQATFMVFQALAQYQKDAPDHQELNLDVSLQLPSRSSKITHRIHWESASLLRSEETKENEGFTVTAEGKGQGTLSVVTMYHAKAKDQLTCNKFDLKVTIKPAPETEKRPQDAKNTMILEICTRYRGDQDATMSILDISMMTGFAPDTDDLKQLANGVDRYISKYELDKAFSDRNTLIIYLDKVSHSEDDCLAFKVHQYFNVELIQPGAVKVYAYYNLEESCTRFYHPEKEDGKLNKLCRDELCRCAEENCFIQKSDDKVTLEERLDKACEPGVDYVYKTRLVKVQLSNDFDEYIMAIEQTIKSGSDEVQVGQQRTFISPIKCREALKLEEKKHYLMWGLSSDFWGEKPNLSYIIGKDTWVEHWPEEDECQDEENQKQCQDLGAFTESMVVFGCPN

Row | Binder | Kd (Human C3 [1]) | CP hemolysis IC50 (Human C3 [2]) | IC50, CP hemolysis (Human C3 [3]) | IC50[nM], inhibition of hemolysis (Human C3 [4]) | Kd (Human C3 [5])
1 | Ac-ICVWQDWGEHRCTGAES-NH2 (disulfide 2-12; SMILES CC[C@H](C)[C@H](NC(C)=O)C(=O)N[C@H]1CSSC[C@@H](C(=O)N[C@H](C(=O)NCC(=O)N[C@@H](C)C(=O)N[C@@H](CCC(=O)O)C(=O)N[C@@H](CO)C(N)=O)[C@@H](C)O)NC(=O)[C@H](CCCNC(=N)N)NC(=O)[C@H](Cc2c[nH]cn2)NC(=O)[C@H](CCC(=O)O)NC(=O)CNC(=O)[C@H](Cc2c[nH]c3ccccc23)NC(=O)[C@H](CC(=O)O)NC(=O)[C@H](CCC(N)=O)NC(=O)[C@H](Cc2c[nH]c3ccccc23)NC(=O)[C@H](C(C)C)NC1=O) [Compound D] | 230 nM | 210 nM |  |  | 
2 | Ac-ICIWQDWGEHRCT-NH2 (disulfide 2-12; SMILES CC[C@H](C)[C@H](NC(C)=O)C(=O)N[C@H]1CSSC[C@@H](C(=O)N[C@H](C(N)=O)[C@@H](C)O)NC(=O)[C@H](CCCNC(=N)N)NC(=O)[C@H](Cc2c[nH]cn2)NC(=O)[C@H](CCC(=O)O)NC(=O)CNC(=O)[C@H](Cc2c[nH]c3ccccc23)NC(=O)[C@H](CC(=O)O)NC(=O)[C@H](CCC(N)=O)NC(=O)[C@H](Cc2c[nH]c3ccccc23)NC(=O)[C@H]([C@@H](C)CC)NC1=O) [Compound 2] |  | 94 nM | < 100 nM | < 100 nM | 
3 | Ac-ICVWQDWGEHRCT-NH2 (disulfide 2-12; SMILES CC[C@H](C)[C@H](NC(C)=O)C(=O)N[C@H]1CSSC[C@@H](C(=O)N[C@H](C(N)=O)[C@@H](C)O)NC(=O)[C@H](CCCNC(=N)N)NC(=O)[C@H](Cc2c[nH]cn2)NC(=O)[C@H](CCC(=O)O)NC(=O)CNC(=O)[C@H](Cc2c[nH]c3ccccc23)NC(=O)[C@H](CC(=O)O)NC(=O)[C@H](CCC(N)=O)NC(=O)[C@H](Cc2c[nH]c3ccccc23)NC(=O)[C@H](C(C)C)NC1=O) [Compound A] | 130 nM | 350 nM | 350 nM |  | 
4 | Ac-ICVWQDWGEHRCS-NH2 (disulfide 2-12; SMILES CC[C@H](C)[C@H](NC(C)=O)C(=O)N[C@H]1CSSC[C@@H](C(=O)N[C@@H](CO)C(N)=O)NC(=O)[C@H](CCCNC(=N)N)NC(=O)[C@H](Cc2c[nH]cn2)NC(=O)[C@H](CCC(=O)O)NC(=O)CNC(=O)[C@H](Cc2c[nH]c3ccccc23)NC(=O)[C@H](CC(=O)O)NC(=O)[C@H](CCC(N)=O)NC(=O)[C@H](Cc2c[nH]c3ccccc23)NC(=O)[C@H](C(C)C)NC1=O) [Compound G] | 160 nM | 180 nM |  |  | 
5 | Ac-ICIWQDWGEHSCT-NH2 (disulfide 2-12; SMILES CC[C@H](C)[C@H](NC(C)=O)C(=O)N[C@H]1CSSC[C@@H](C(=O)N[C@H](C(N)=O)[C@@H](C)O)NC(=O)[C@H](CO)NC(=O)[C@H](Cc2c[nH]cn2)NC(=O)[C@H](CCC(=O)O)NC(=O)CNC(=O)[C@H](Cc2c[nH]c3ccccc23)NC(=O)[C@H](CC(=O)O)NC(=O)[C@H](CCC(N)=O)NC(=O)[C@H](Cc2c[nH]c3ccccc23)NC(=O)[C@H]([C@@H](C)CC)NC1=O) [Compound 20] |  | 59 nM |  | < 100 nM | 37 nM
6 | Ac-IC[Nva]WQDWGEHRCT-NH2 (disulfide 2-12; SMILES CCC[C@@H]1NC(=O)[C@@H](NC(=O)[C@@H](NC(C)=O)[C@@H](C)CC)CSSC[C@@H](C(=O)N[C@H](C(N)=O)[C@@H](C)O)NC(=O)[C@H](CCCNC(=N)N)NC(=O)[C@H](Cc2c[nH]cn2)NC(=O)[C@H](CCC(=O)O)NC(=O)CNC(=O)[C@H](Cc2c[nH]c3ccccc23)NC(=O)[C@H](CC(=O)O)NC(=O)[C@H](CCC(N)=O)NC(=O)[C@H](Cc2c[nH]c3ccccc23)NC1=O) [Ac-IC(1)XWQDWGEHRC(1)T-NH2 with Norvaline at position 3] |  |  | > 1000 nM |  | 
7 | Ac-ICIWQDWGEHRCTEGE-NH2 (disulfide 2-12; SMILES CC[C@H](C)[C@H](NC(C)=O)C(=O)N[C@H]1CSSC[C@@H](C(=O)N[C@H](C(=O)N[C@@H](CCC(=O)O)C(=O)NCC(=O)N[C@@H](CCC(=O)O)C(N)=O)[C@@H](C)O)NC(=O)[C@H](CCCNC(=N)N)NC(=O)[C@H](Cc2c[nH]cn2)NC(=O)[C@H](CCC(=O)O)NC(=O)CNC(=O)[C@H](Cc2c[nH]c3ccccc23)NC(=O)[C@H](CC(=O)O)NC(=O)[C@H](CCC(N)=O)NC(=O)[C@H](Cc2c[nH]c3ccccc23)NC(=O)[C@H]([C@@H](C)CC)NC1=O, also called Comp No 24) [Compound 24] |  | 90 nM |  | < 100 nM | 
8 | Ac-IC[β3hI]WQDWGEHRCT-NH2 (disulfide 2-12) [Ac-IC(1)XWQDWGEHRC(1)T-NH2 with Beta-Homo-Isoleucine at position 3] |  |  | > 10000 nM |  | 
9 | Ac-EGSAICIWQDWGEHRC[Sar]E-NH2 (disulfide 6-16; SMILES CC[C@H](C)[C@H](NC(=O)[C@H](C)NC(=O)[C@H](CO)NC(=O)CNC(=O)[C@H](CCC(=O)O)NC(C)=O)C(=O)N[C@H]1CSSC[C@@H](C(=O)N(C)CC(=O)N[C@@H](CCC(=O)O)C(N)=O)NC(=O)[C@H](CCCNC(=N)N)NC(=O)[C@H](Cc2c[nH]cn2)NC(=O)[C@H](CCC(=O)O)NC(=O)CNC(=O)[C@H](Cc2c[nH]c3ccccc23)NC(=O)[C@H](CC(=O)O)NC(=O)[C@H](CCC(N)=O)NC(=O)[C@H](Cc2c[nH]c3ccccc23)NC(=O)[C@H]([C@@H](C)CC)NC1=O) [Compound 28] |  | 88 nM |  | < 100 nM | 44 nM
10 | Ac-IC[Nle]WQDWGEHRCT-NH2 (disulfide 2-12; SMILES CCCC[C@@H]1NC(=O)[C@@H](NC(=O)[C@@H](NC(C)=O)[C@@H](C)CC)CSSC[C@@H](C(=O)N[C@H](C(N)=O)[C@@H](C)O)NC(=O)[C@H](CCCNC(=N)N)NC(=O)[C@H](Cc2c[nH]cn2)NC(=O)[C@H](CCC(=O)O)NC(=O)CNC(=O)[C@H](Cc2c[nH]c3ccccc23)NC(=O)[C@H](CC(=O)O)NC(=O)[C@H](CCC(N)=O)NC(=O)[C@H](Cc2c[nH]c3ccccc23)NC1=O) [Ac-IC(1)XWQDWGEHRC(1)T-NH2 with Norleucine at position 3] |  |  | 480 nM |  | 

Reference: patent publication US20220306695A1, “COMPSTATIN ANALOGUES AND THEIR MEDICAL USES” (priority 2019, published 2022)
